Drawing on US20220024982A1 (Bicycle, published 2022), this text covers Kd and Ki for 17 molecules.

Assay [1] addresses T1, MT1-MMP Hemopexin domain (PEX) (UniProt P50281 319-511).
T1 construct: domain: Hemopexin domain (PEX); Target of the fluorescence polarisation assays; also called hemopexin of MT1-MMP; MMP14
Description: FP competition vs tracer 17-69-07-N040. The text has this:
(§1) Here, a pre-formed complex of PEX with the fluorescent PEX-binding tracer is titrated with free, non-fluoresceinated bicyclic peptide. Since all 17-69-based peptides are expected to bind at the same site, the titrant will displace the fluorescent tracer from PEX. Dissociation of the complex can be measured quantitatively, and the Kd of the competitor (titrant) to the target protein determined. The advantage of the competition method is that the affinities of non-fluoresceinated bicyclic peptides can be determined accurately and rapidly.
(§2) Subsequently, the non-fluorescent competitor bicyclic peptide (usually just the bicycle core sequence) is titrated, such that it displaces the fluorescent tracer from the target protein. The displacement of the tracer is measured and associated with a drop in fluorescence polarisation. The drop in fluorescence polarisation is proportional to the fraction of target protein bound with the non-fluorescent titrant, and thus is a measure of the affinity of titrant to target protein.
(§3) The raw data is fit to the analytical solution of the cubic equation that describes the equilibria between fluorescent tracer, titrant, and binding protein. The fit requires the value of the affinity of fluorescent tracer to the target protein, which can be determined separately by direct binding FP experiments (see previous section).

The target in assay [2] is T1, MT1-MMP Hemopexin domain (PEX). Briefly: FP direct binding.
Assay [3] deals with T2, human MT1 MMP14 protein, hemopexin domain (obtained from Merck Millipore) (human, UniProt P50281 319-511, limits assumed, randomly biotinylated (EZ-Link Sulfo-NHS-LC-LC-Biotin)).
T2 construct: domain: hemopexin domain; Target of the SPR assay, captured on streptavidin; also called biotinylated MT1 MMP14
Briefly: SPR, biotinylated target on streptavidin chip. The procedure:
Streptavidin was immobilized on the chip using standard amine-coupling chemistry at 25° C. with HBS-N (10 mM HEPES, 0.15 M NaCl, pH 7.4) as the running buffer. […] Buffer was changed to PBS/0.05% Tween 20 and a dilution series of the peptides was prepared in this buffer with a final DMSO concentration of 0.5%. […] Data were corrected for DMSO excluded volume effects. All data were double-referenced for blank injections and reference surface using standard processing procedures and data processing and kinetic fitting were performed using Scrubber software, version 2.0c (BioLogic Software).

Assay [4] has as its target T1, MT1-MMP Hemopexin domain (PEX). Description: FP competition vs tracer 17-69-07-N041.
Excerpt: as §1, §2, §3

Assay [5] shares this target. Briefly: FP competition vs tracer 17-88-N006. On the procedure:
as §2, §3

Assay [6] shares this target. Briefly: FP competition, plate 1, tracer not named.

Numbered stars: 1 amine (or outer) side, 2 acyl side, 3 side chain; on linkers, the order of the positions; unused ones are H or OH. Bridge positions count the residues as written; N and C are the ends. Square brackets hold non-standard residues; d marks the D form. Ends that are not written are not given here. TATA = O=C(CC[*:1])N1CN(C(=O)CC[*:2])CN(C(=O)CC[*:3])C1; fluorescein = fluorescein (fluorescent label, [FI]); 2Nal = N[C@@H](Cc1ccc2ccccc2c1)C(=O)O; TBMB = c1c(C[*:1])cc(C[*:3])cc1C[*:2]; hArg = N=C(N)NCCCC[C@H](N)C(=O)O; Tle = CC(C)(C)[C@H](N)C(=O)O; Sar = CNCC(=O)O

B1: 17-120-05 (peptide)
peptide: ACADECRLLFPKTCA
modifications: linker 2-6-14 via TATA
As for B1, in assay [1], the equilibrium dissociation constant (Kd) (usually a measure of binding affinity in units of concentration) is above 280 nM.

B2: 17-122-02 (peptide)
peptide: ACLEPDECFYPMECA
modifications: linker 2-8-14 via TATA
For B2, the dissociation constant (Kd) in assay [1] is above 929 nM.

B3: 17-69-12-N004 (peptide)
peptide: fluorescein-G[Sar][Sar][Sar][Sar][Sar]ACMNQFGCEDFYDICA
modifications: linker 8-14-21 via TBMB
notes: fluorescent tracer
Take B3: in assay [2], the equilibrium dissociation constant (Kd) worked out at 1 nM.

B4: 17-88-N006 (peptide)
peptide: ACPYSWETCLFGDYRCA[Sar][Sar][Sar][Sar][Sar][Sar]K(fluorescein)
modifications: linker 2-9-16 via TBMB
Consider B4, for which binding in assay [2] was characterised by a dissociation constant (Kd) of 14 nM.

B5: 17-88-226-N002 (peptide)
peptide: ACPYDWATCLFGDYRCA[Sar][Sar][Sar][Sar][Sar][Sar]K(fluorescein)
modifications: linker 2-9-16 via TBMB
Turning to B5, the Kd in assay [2] amounted to 50 nM.

B6: BCY10223 (peptide)
peptide: Ac-LPPCV[hArg]ECALL[2Nal]P[hArg]TC
modifications: linker 4-8-16 via TATA
In assay [3], B6 returned a dissociation constant (Kd) of 400 nM.

B7: 17-126-02 (peptide)
peptide: ACEEQFYPCTHALYTCA
modifications: linker 2-9-16 via TATA
In assay [4], B7 had a Kd above 282 nM.

B8: 17-69-07-N041 (peptide)
peptide: fluorescein-G[Sar][Sar][Sar][Sar][Sar]ACYNEFACEDFYDICA
modifications: linker 8-14-21 via TBMB
notes: fluorescent tracer
B8 registered a Kd in assay [2] of 3.4 nM.

B9: 17-120-21 (peptide)
peptide: ACYEECRLLFPRTCA
modifications: linker 2-6-14 via TATA
B9 had a Kd in assay [5] above 82.8 nM.

B10: 17-69-07-N040 (peptide)
peptide: ACYNEFGCEDFYDICA[Sar][Sar][Sar][Sar][Sar][Sar]K(fluorescein)
modifications: linker 2-8-15 via TBMB
notes: fluorescent tracer
The molecule B10 showed a dissociation constant (Kd) in assay [2] of 0.52 nM.

B11: 17-126-01 (peptide)
peptide: ACEEEFYPCGHPLYVCA
modifications: linker 2-9-16 via TATA
Take B11: the Kd in assay [4] was above 316 nM.

B12: 17-126-03 (peptide)
peptide: ACVEEFYPCDHPLYSCA
modifications: linker 2-9-16 via TATA
On to B12, for which the Kd in assay [4] is above 430 nM.

B13: 17-122-03 (peptide)
peptide: ACKEPQECFYPLKCA
modifications: linker 2-8-14 via TATA
B13 came in with a Kd in assay [1] above 378 nM.

B14: 17-126-24 (peptide)
peptide: ACDEQFYPCNHRLNTCA
modifications: linker 2-9-16 via TATA (inferred)
Take B14: the Kd in assay [1] turned out to be 200 nM.

B15: 17-126-25 (peptide)
peptide: ACEEAFYPCHHPLYRCA
modifications: linker 2-9-16 via TATA (inferred)
Turning to B15, the Kd in assay [1] was above 139 nM.

B16: 17-122-04 (peptide)
peptide: ACDSPEECFYPLECA
modifications: linker 2-8-14 via TATA
For the molecule B16, the equilibrium dissociation constant (Kd) in assay [1] was above 2100 nM.

B17: BCY11149 (peptide)
peptide: Ac-LPPC[Tle][hArg]ECALLFP[hArg]TC
modifications: linker 4-8-16 via TATA
Consider B17, for which the affinity in assay [6] corresponds to a Ki of 80 nM.
